From PMC3150435 (Nature structural & molecular biology, 2011)

What was measured:
[1] = target: Plasmodium vivax Duffy-Binding Protein region II (RII-PvDBP), amino acids 211-525 (Plasmodium vivax) (UniProt P22290); assay: AUC
[2] = target: Plasmodium vivax Duffy-Binding Protein region II (RII-PvDBP), amino acids 211-525 (Plasmodium vivax, UniProt P22290 211-525); assay: ITC
Chain of Plasmodium vivax Duffy-Binding Protein region II (RII-PvDBP), amino acids 211-525 (P22290 211-525): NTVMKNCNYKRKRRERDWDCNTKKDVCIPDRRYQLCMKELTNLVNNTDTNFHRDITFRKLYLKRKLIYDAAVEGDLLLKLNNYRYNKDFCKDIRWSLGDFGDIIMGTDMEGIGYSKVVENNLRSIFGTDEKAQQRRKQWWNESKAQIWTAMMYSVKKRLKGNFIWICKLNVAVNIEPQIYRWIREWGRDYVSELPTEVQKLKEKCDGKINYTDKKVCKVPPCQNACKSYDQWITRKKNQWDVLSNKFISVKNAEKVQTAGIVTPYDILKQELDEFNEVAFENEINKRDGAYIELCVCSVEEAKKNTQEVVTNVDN

Row | Molecule | stoichiometry N [1] | stoichiometry N [2]
1 | Plasmodium vivax Duffy-Binding Protein region II (RII-PvDBP), amino acids 211-525 (from UniProt P22290 211-525) (domain or fragment) | 2 | –
2 | DARC1-60 (N-terminal 60 amino acids of Duffy Antigen/Receptor for Chemokines) with C4A, C51A and C54A, unsulfated (domain or fragment, UniProt Q16570 1-60, looked up) MGNALHRAELSPSTENSSQLDFEDVWNSSYGVNDSFPDGDYGANLEAAAPAHSANLLDDS | – | 1
